Numbering of substitutions follows the chain as printed. In names and notes the source's numbering stands. Blank lines part the entries; values can stand above or below the binder they belong to.
Target: T1, Human CD137 ECD (human)
T1 construct: also called 4-1BB
Assay: SPR, vs parent H183/L072

T1 sequence (chain, as listed by the source limits assumed): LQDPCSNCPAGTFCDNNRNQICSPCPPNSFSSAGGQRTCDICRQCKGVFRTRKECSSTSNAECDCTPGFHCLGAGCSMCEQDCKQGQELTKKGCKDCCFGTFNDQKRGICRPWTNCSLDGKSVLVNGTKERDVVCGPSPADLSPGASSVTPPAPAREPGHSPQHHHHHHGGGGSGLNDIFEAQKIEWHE

fold change of affinity: 0.7 fold
B1: dBBDu183H D101N / dBBDu072L (antibody, name in Kabat numbering, V domains shown)
VH: QVQLVESGGGLVQPGRSLRLSCAASGFTFSNAWMHWVRQAPGKGLEWVAQIKDKGNAYAAYYAPSVKGRFTISRDDSKNSIYLQMNSLKTEDTAVYYCHYVHYASASTVLPAFGVNAWGQGTTVTVSS
VL: DIVMTQSPLSLPVTPGEPASISCQASQELVHMNRNTYLHWYQQKPGQAPRLLIYKVSNRFPGVPDRFSGSGSGTDFTLKISRVEAEDVGVYYCAQGTSVPFTFGQGTKLEIK
notes: as m1, one VH change

fold change of affinity: 0.5 fold
B2: dBBDu183H L100dS / dBBDu072L (antibody, name in Kabat numbering, V domains shown)
VH: B1 VH with L110S, N116D
VL: B1 VL
notes: as m1, one VH change

fold change of affinity: 1.1 fold
B3: dBBDu183H K64D / dBBDu072L (antibody, name in Kabat numbering, V domains shown)
VH: B1 VH with K67D, N116D
VL: B1 VL
notes: as m1, one VH change

fold change of affinity: 1.1 fold
B4: dBBDu183H K64T / dBBDu072L (antibody, name in Kabat numbering, V domains shown)
VH: B1 VH with K67T, N116D
VL: B1 VL
notes: as m1, one VH change

fold change of affinity: 1.3 fold
B5: dBBDu183H G65Y / dBBDu072L (antibody, name in Kabat numbering, V domains shown)
VH: B1 VH with G68Y, N116D
VL: B1 VL
notes: as m1, one VH change

fold change of affinity: 0.1 fold
B6: dBBDu183H H93N / dBBDu072L (antibody, name in Kabat numbering, V domains shown)
VH: B1 VH with H99N, N116D
VL: B1 VL
notes: as m1, one VH change

fold change of affinity: 1.2 fold
B7: dBBDu183H G65N / dBBDu072L (antibody, name in Kabat numbering, V domains shown)
VH: B1 VH with G68N, N116D
VL: B1 VL
notes: as m1, one VH change

fold change of affinity: 1.1 fold
B8: dBBDu183H K64Q / dBBDu072L (antibody, name in Kabat numbering, V domains shown)
VH: B1 VH with K67Q, N116D
VL: B1 VL
notes: as m1, one VH change

fold change of affinity: 0.8 fold
B9: dBBDu183H H96V / dBBDu072L (antibody, name in Kabat numbering, V domains shown)
VH: B1 VH with H102V, N116D
VL: B1 VL
notes: as m1, one VH change

fold change of affinity: 1.4 fold
B10: dBBDu183H H96F / dBBDu072L (antibody, name in Kabat numbering, V domains shown)
VH: B1 VH with H102F, N116D
VL: B1 VL
notes: as m1, one VH change

fold change of affinity: 1.1 fold
B11: dBBDu183H G65R / dBBDu072L (antibody, name in Kabat numbering, V domains shown)
VH: B1 VH with G68R, N116D
VL: B1 VL
notes: as m1, one VH change

fold change of affinity: 1.2 fold
B12: dBBDu183H K64S / dBBDu072L (antibody, name in Kabat numbering, V domains shown)
VH: B1 VH with K67S, N116D
VL: B1 VL
notes: as m1, one VH change

fold change of affinity: 1.1 fold
B13: dBBDu183H K64H / dBBDu072L (antibody, name in Kabat numbering, V domains shown)
VH: B1 VH with K67H, N116D
VL: B1 VL
notes: as m1, one VH change

fold change of affinity: 1.2 fold
B14: dBBDu183H G65Q / dBBDu072L (antibody, name in Kabat numbering, V domains shown)
VH: B1 VH with G68Q, N116D
VL: B1 VL
notes: as m1, one VH change

fold change of affinity: 1.1 fold
B15: dBBDu183H K64R / dBBDu072L (antibody, name in Kabat numbering, V domains shown)
VH: B1 VH with K67R, N116D
VL: B1 VL
notes: as m1, one VH change

fold change of affinity: 1.3 fold
B16: dBBDu183H G65E / dBBDu072L (antibody, name in Kabat numbering, V domains shown)
VH: B1 VH with G68E, N116D
VL: B1 VL
notes: as m1, one VH change

fold change of affinity: 0.4 fold
B17: dBBDu183H L100dE / dBBDu072L (antibody, name in Kabat numbering, V domains shown)
VH: B1 VH with L110E, N116D
VL: B1 VL
notes: as m1, one VH change

fold change of affinity: 1.3 fold
B18: dBBDu183H G65W / dBBDu072L (antibody, name in Kabat numbering, V domains shown)
VH: B1 VH with G68W, N116D
VL: B1 VL
notes: as m1, one VH change

fold change of affinity: 1.2 fold
B19: dBBDu183H G65S / dBBDu072L (antibody, name in Kabat numbering, V domains shown)
VH: B1 VH with G68S, N116D
VL: B1 VL
notes: as m1, one VH change

fold change of affinity: 1.2 fold
B20: dBBDu183H G65V / dBBDu072L (antibody, name in Kabat numbering, V domains shown)
VH: B1 VH with G68V, N116D
VL: B1 VL
notes: as m1, one VH change

fold change of affinity: 1.1 fold
B21: dBBDu183H G65K / dBBDu072L (antibody, name in Kabat numbering, V domains shown)
VH: B1 VH with G68K, N116D
VL: B1 VL
notes: as m1, one VH change

fold change of affinity: 0.5 fold
B22: dBBDu183H H96T / dBBDu072L (antibody, name in Kabat numbering, V domains shown)
VH: B1 VH with H102T, N116D
VL: B1 VL
notes: as m1, one VH change

fold change of affinity: 0.5 fold
B23: dBBDu183H L100dQ / dBBDu072L (antibody, name in Kabat numbering, V domains shown)
VH: B1 VH with L110Q, N116D
VL: B1 VL
notes: as m1, one VH change

fold change of affinity: 1.1 fold
B24: dBBDu183H K64G / dBBDu072L (antibody, name in Kabat numbering, V domains shown)
VH: B1 VH with K67G, N116D
VL: B1 VL
notes: as m1, one VH change

fold change of affinity: 3.3 fold
B25: dBBDu183H H96Y / dBBDu072L (antibody, name in Kabat numbering, V domains shown)
VH: B1 VH with H102Y, N116D
VL: B1 VL
notes: as m1, one VH change

fold change of affinity: 1.7 fold
B26: dBBDu183H D101Q / dBBDu072L (antibody, name in Kabat numbering, V domains shown)
VH: B1 VH with N116Q
VL: B1 VL
notes: as m1, one VH change

fold change of affinity: 1.3 fold
B27: dBBDu183H G65D / dBBDu072L (antibody, name in Kabat numbering, V domains shown)
VH: B1 VH with G68D, N116D
VL: B1 VL
notes: as m1, one VH change

fold change of affinity: 1.1 fold
B28: dBBDu183H K64F / dBBDu072L (antibody, name in Kabat numbering, V domains shown)
VH: B1 VH with K67F, N116D
VL: B1 VL
notes: as m1, one VH change

fold change of affinity: 1.6 fold
B29: dBBDu183H H96W / dBBDu072L (antibody, name in Kabat numbering, V domains shown)
VH: B1 VH with H102W, N116D
VL: B1 VL
notes: as m1, one VH change

fold change of affinity: 1 fold
B30: dBBDu183H K64N / dBBDu072L (antibody, name in Kabat numbering, V domains shown)
VH: B1 VH with K67N, N116D
VL: B1 VL
notes: as m1, one VH change

fold change of affinity: 1.9 fold
B31: dBBDu183H F100gE / dBBDu072L (antibody, name in Kabat numbering, V domains shown)
VH: B1 VH with F113E, N116D
VL: B1 VL
notes: as m1, one VH change

fold change of affinity: 0.8 fold
B32: dBBDu183H F100gQ / dBBDu072L (antibody, name in Kabat numbering, V domains shown)
VH: B1 VH with F113Q, N116D
VL: B1 VL
notes: as m1, one VH change

fold change of affinity: 1 fold
B33: dBBDu183H K64V / dBBDu072L (antibody, name in Kabat numbering, V domains shown)
VH: B1 VH with K67V, N116D
VL: B1 VL
notes: as m1, one VH change

fold change of affinity: 1.1 fold
B34: dBBDu183H K64Y / dBBDu072L (antibody, name in Kabat numbering, V domains shown)
VH: B1 VH with K67Y, N116D
VL: B1 VL
notes: as m1, one VH change

fold change of affinity: 1 fold
B35: dBBDu183H F100gY / dBBDu072L (antibody, name in Kabat numbering, V domains shown)
VH: B1 VH with F113Y, N116D
VL: B1 VL
notes: as m1, one VH change

fold change of affinity: 0.7 fold
B36: dBBDu183H F100gT / dBBDu072L (antibody, name in Kabat numbering, V domains shown)
VH: B1 VH with F113T, N116D
VL: B1 VL
notes: as m1, one VH change

fold change of affinity: 3.3 fold
B37: dBBDu183H D101T / dBBDu072L (antibody, name in Kabat numbering, V domains shown)
VH: B1 VH with N116T
VL: B1 VL
notes: as m1, one VH change

fold change of affinity: 0.7 fold
B38: dBBDu183H F100gH / dBBDu072L (antibody, name in Kabat numbering, V domains shown)
VH: B1 VH with F113H, N116D
VL: B1 VL
notes: as m1, one VH change

fold change of affinity: 0.4 fold
B39: dBBDu183H F100gS / dBBDu072L (antibody, name in Kabat numbering, V domains shown)
VH: B1 VH with F113S, N116D
VL: B1 VL
notes: as m1, one VH change

fold change of affinity: 0.7 fold
B40: dBBDu183H L100dK / dBBDu072L (antibody, name in Kabat numbering, V domains shown)
VH: B1 VH with L110K, N116D
VL: B1 VL
notes: as m1, one VH change

fold change of affinity: 1.3 fold
B41: dBBDu183H G65F / dBBDu072L (antibody, name in Kabat numbering, V domains shown)
VH: B1 VH with G68F, N116D
VL: B1 VL
notes: as m1, one VH change

fold change of affinity: 1.2 fold
B42: dBBDu183H K64W / dBBDu072L (antibody, name in Kabat numbering, V domains shown)
VH: B1 VH with K67W, N116D
VL: B1 VL
notes: as m1, one VH change

fold change of affinity: 1.2 fold
B43: dBBDu183H G65H / dBBDu072L (antibody, name in Kabat numbering, V domains shown)
VH: B1 VH with G68H, N116D
VL: B1 VL
notes: as m1, one VH change

fold change of affinity: 3.3 fold
B44: dBBDu183H D101S / dBBDu072L (antibody, name in Kabat numbering, V domains shown)
VH: B1 VH with N116S
VL: B1 VL
notes: as m1, one VH change

fold change of affinity: 0.5 fold
B45: dBBDu183H F100gV / dBBDu072L (antibody, name in Kabat numbering, V domains shown)
VH: B1 VH with F113V, N116D
VL: B1 VL
notes: as m1, one VH change

fold change of affinity: 0.6 fold
B46: dBBDu183H F100gW / dBBDu072L (antibody, name in Kabat numbering, V domains shown)
VH: B1 VH with F113W, N116D
VL: B1 VL
notes: as m1, one VH change

fold change of affinity: 1.3 fold
B47: dBBDu183H G65T / dBBDu072L (antibody, name in Kabat numbering, V domains shown)
VH: B1 VH with G68T, N116D
VL: B1 VL
notes: as m1, one VH change
